Data from publication PMC8790569.

Tests used:
[1] = molecular target: AzuR (Alr0831) (Anabaena sp. strain PCC 7120); assay: SEC; Superdex 75, 20 mM Tris, 100 mM NaCl, pH 7.5, 25 °C, 0.5 ml/min; calibrated with gel filtration markers
[2] = molecular target: AzuR (Alr0831) (Anabaena sp. strain PCC 7120); assay: cross-linking; purified AzuR (5 ug) with 10 mM glutaraldehyde, room temperature, 10-15 min, 10 mM Tris pH 7.5; cracking buffer without DTT; 15% SDS-PAGE, Coomassie
[3] = tested on: T1, AnLexA (Anabaena sp. strain PCC 7120), ORF:0695c96d; assay: EMSA; details: 20 mM Tris-Cl pH 7.5, 1 mM EDTA, 20 ul, RT 30 min; 10% native PAGE in 0.5x TBE
T1 sequence: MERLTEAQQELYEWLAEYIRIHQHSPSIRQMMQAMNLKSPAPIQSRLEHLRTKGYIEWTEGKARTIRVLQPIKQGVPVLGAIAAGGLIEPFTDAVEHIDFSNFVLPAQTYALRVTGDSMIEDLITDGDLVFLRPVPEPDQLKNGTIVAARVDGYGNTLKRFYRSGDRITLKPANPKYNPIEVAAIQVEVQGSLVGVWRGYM

[4] = tested on: T2, AzuR (Anabaena sp. strain PCC 7120), ORF:06435f25; assay: EMSA; details: 20 mM Tris-Cl pH 7.5, 1 mM EDTA, 20 ul, RT 30 min; 10% native PAGE in 0.5x TBE
T2 sequence: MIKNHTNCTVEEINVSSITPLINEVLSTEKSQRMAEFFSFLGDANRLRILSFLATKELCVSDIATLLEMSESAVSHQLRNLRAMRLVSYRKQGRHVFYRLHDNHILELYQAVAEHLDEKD

Row | Substance | stoichiometry N [1] | stoichiometry N [2] | binding [3] | binding [4]
1 | AzuR (Alr0831) (natural protein) | 2 | 2 | – | –
2 | AAACGTATTATATAACCTAATTGTTACATTTTATTAAGCAATACTTGAACATCTGTTCAGGTATTGTAGTGTAATCACAAGTGAAAACGGAGGAAATAAT (double strand) [PnmtA (100 bp upstream of nmtA ORF)] | – | – | no binding | binds
